The labels stand for the following.
B1: His-Arf3^Q71L, recombinant histidine-tagged constitutively active Arf3 (natural protein, S. cerevisiae, UniProt P40994 1-183, looked up)
chain: MGNSISKVLGKLFGSKEMKILMLGLDKAGKTTILYKLKLNKIKTSTPTVGFNVETVTYKNVKFNMWDVGGLQRLRPLWRHYFPATTALIFVIDSSARNRMEEAKEELYSIIGEKEMENVVLLVWANKQDLKDAMKPQEVSDFLELEKNLKNQPWCVIGSNALSGQGLVEGLSWISNNTNVPKK

Common to all, as to assay: pull-down
The target of assay [1] is T1, GST-Bud2-N, GST-tagged N-terminal 336 amino acids of Bud2p (S. cerevisiae, UniProt P33314 1-336).
T1 sequence (looked up): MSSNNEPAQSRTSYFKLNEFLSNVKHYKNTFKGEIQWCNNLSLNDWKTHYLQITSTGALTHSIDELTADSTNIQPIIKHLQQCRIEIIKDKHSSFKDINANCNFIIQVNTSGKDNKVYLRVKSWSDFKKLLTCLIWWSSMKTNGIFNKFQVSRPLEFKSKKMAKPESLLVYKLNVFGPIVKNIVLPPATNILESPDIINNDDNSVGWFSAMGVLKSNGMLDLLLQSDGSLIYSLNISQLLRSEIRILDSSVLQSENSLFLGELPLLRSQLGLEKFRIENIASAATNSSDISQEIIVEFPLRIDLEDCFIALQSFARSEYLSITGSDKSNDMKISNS

Assay [2] deals with T2, His-Arf3, purified, prebound with GTPγS or GDP (S. cerevisiae, UniProt P40994 1-183).
T2 sequence (looked up): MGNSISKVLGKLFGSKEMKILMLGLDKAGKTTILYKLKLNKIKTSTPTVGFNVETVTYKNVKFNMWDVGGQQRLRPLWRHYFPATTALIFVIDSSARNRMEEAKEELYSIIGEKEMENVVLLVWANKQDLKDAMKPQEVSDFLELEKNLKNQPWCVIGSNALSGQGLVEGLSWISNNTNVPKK

Assay [3] deals with B1.

Turning to B1, the binding result in assay [1] is reported as “binds”.

B2: GST-Bud2N1, GST-tagged first 120 residues of Bud2p (domain or fragment, S. cerevisiae, UniProt P33314 1-120, looked up)
chain: MSSNNEPAQSRTSYFKLNEFLSNVKHYKNTFKGEIQWCNNLSLNDWKTHYLQITSTGALTHSIDELTADSTNIQPIIKHLQQCRIEIIKDKHSSFKDINANCNFIIQVNTSGKDNKVYLR
On to B2, for which the binding result in assay [2] and in assay [3] was “binds” in each case.

Values taken from article PMC3727926 (Molecular Biology of the Cell, 2013).
